In test [1] the target is T1, phospholipase C-β2 (human, UniProt Q00722 1-1185, Cascade Blue acetyl azide label on amines, labelling ratio 1:1 (FRET experiment only)). The experiment in a line: cell-based or functional assay.
Test [2] addresses T1, phospholipase C-β2. The test is described as follows: fluorescence resonance energy transfer, DABMI-peptide and Cascade Blue-PLC-β2, with and without phospholipids. How it is done:
The reaction was allowed to proceed for 30 minutes at room temperature before quenching with 5 mM DTT. The final labeling ratios, as determined by absorption, were 1:1 for CB-PLC-β2 and 0.8 for the two DABMI-peptides. Fluorescence spectra were taken on an ISS-PC7 (ISS Champaign, IL) photon counting spectrofluorometer using a 3×3 mm cuvette and exciting at 380 nm and scanning from 400-560 nm.
The stimulation by maximal concentration of peptide was non-additive with Gβγ stimulation (FIG. 5A, upper panel).

Ends that are not written are not given here.

T1 sequence (Q00722 other isoform, or with tags, fused parts or gaps limits assumed): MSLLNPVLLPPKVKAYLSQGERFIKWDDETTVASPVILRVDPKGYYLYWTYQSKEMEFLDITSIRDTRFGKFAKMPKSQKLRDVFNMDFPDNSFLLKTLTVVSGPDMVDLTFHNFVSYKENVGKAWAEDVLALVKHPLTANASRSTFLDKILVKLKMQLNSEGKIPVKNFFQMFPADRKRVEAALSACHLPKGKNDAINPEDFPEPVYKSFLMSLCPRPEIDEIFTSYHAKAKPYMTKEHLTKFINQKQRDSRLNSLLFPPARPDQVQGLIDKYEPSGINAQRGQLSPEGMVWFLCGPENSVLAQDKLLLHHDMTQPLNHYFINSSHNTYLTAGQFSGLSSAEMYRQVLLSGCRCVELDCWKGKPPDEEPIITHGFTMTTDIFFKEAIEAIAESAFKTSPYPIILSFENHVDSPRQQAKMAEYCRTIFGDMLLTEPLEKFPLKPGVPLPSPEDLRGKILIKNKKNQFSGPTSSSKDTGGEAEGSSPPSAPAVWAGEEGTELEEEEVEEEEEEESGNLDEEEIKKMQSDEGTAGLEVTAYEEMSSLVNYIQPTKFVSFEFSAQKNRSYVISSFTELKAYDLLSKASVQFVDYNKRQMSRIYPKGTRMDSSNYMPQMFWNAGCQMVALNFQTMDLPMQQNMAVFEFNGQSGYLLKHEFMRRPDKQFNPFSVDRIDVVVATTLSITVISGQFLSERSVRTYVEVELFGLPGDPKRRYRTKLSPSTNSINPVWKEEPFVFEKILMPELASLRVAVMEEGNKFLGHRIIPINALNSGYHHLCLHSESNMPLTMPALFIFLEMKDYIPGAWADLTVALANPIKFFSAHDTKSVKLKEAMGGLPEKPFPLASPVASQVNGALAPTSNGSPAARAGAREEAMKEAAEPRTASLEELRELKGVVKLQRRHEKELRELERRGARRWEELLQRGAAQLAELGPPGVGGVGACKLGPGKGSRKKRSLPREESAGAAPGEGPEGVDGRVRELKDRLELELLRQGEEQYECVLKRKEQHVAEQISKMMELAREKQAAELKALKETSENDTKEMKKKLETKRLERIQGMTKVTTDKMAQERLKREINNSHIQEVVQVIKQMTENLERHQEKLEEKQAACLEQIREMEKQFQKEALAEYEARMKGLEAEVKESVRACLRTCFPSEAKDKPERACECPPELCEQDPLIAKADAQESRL

Regarding TTNKVHAIPLRRRWVMTCAY [S97,98R Gβ 86-105 peptide], in the test with phospholipase C-β2 [1], the “fold change in affinity of PLC-β2 stimulation against the Gβ 86-105 peptide” value came to 5 fold.

On to TTNKVHAIPLRSSWVNTCAY (also: DABMI maleimide label in FRET experiment, residue not given here, Synthetic peptide; also called m-TTN) [Gβ 86-105 M101N substituted peptide], for which, in the test with phospholipase C-β2 [2], the binding result is given as “no binding”.

On to TTNKVHAIPLRSAWVMTCAY (not fully specified) [Gβ 86-105 peptide with S98 substituted with alanine], for which the “fold change in affinity of PLC-β2 stimulation against the Gβ 86-105 peptide” value in the test with phospholipase C-β2 [1] was around 2 fold.

Values taken from US20030157644A1 (MOUNT SINAI SCHOOL OF MEDICINE OF THE CITY UNIVERSITY OF …, published 2003).
